{"source": "paper PMC8660799", "about": "“Cryo-EM reveals unique structural features of the FhuCDB Escherichia coli ferrichrome importer” (Communications Biology, 2021)", "key": {"[1]": {"target": "T1, FhuCB with FhuB Q507A, T510A (Escherichia coli, UniProt P07821 1-265; P06972 1-660, Q507A | T510A, red-tris-NTA 2nd generation dye on the His-tag)", "T1 construct": "FhuC, ATPase subunit, Escherichia coli; as in Dm2; FhuB, membrane subunit, Escherichia coli, 660 residues; Mutant made on the FhuCB-pET15b construct by direct mutagenesis; also called Q507T510; source: E. coli BL21(DE3) C43, purified (TALON, Superose 6 gel filtration) in LMNG; not shown: His-tag, N-terminal, kept; copies: 2 + 1", "T1 sequence (looked up) 1": "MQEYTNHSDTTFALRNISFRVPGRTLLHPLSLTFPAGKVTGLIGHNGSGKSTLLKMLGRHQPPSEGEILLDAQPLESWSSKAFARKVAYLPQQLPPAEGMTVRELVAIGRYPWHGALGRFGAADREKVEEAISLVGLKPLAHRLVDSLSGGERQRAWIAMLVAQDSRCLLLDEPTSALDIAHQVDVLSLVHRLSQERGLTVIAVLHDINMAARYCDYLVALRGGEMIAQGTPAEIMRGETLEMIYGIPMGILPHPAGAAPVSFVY", "T1 sequence (looked up) 2": "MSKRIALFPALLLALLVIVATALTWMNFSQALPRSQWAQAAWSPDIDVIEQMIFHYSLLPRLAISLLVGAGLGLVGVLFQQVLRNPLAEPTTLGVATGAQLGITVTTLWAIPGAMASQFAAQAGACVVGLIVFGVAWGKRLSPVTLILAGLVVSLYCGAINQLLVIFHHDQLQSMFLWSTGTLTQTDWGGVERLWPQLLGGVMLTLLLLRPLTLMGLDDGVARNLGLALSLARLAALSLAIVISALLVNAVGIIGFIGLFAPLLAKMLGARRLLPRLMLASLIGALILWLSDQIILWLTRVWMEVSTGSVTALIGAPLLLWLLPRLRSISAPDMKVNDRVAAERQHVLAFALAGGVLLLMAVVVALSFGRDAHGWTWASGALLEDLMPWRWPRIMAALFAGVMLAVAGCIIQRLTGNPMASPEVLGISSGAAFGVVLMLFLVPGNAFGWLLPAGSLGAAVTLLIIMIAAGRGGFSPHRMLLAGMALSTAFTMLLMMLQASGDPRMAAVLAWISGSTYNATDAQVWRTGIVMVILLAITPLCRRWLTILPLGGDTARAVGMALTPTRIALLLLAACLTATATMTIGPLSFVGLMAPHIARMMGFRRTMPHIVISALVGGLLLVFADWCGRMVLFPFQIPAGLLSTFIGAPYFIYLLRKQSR", "test": "MST; 40 nM FhuCB (wild type or FhuB mutant) in detergent, His-tag labelled with red-tris-NTA 2nd generation dye; serial dilution of 1.6 μM FhuD with substrate ferrichrome; with ATP-Mg; Monolith NT.115pico, 20% LED power, medium MST power", "settings": "both partners purified"}, "FhuCB with FhuB S57A": {"target": "T2, FhuCB with FhuB S57A (Escherichia coli, UniProt P07821 1-265; P06972 1-660, S57A, red-tris-NTA 2nd generation dye on the His-tag)", "T2 construct": "FhuC, ATPase subunit, Escherichia coli; as in Dm2; FhuB, membrane subunit, Escherichia coli, 660 residues; Mutant made on the FhuCB-pET15b construct by direct mutagenesis; source: E. coli BL21(DE3) C43, purified (TALON, Superose 6 gel filtration) in LMNG; not shown: His-tag, N-terminal, kept; copies: 2 + 1", "T2 sequence (looked up) 1": "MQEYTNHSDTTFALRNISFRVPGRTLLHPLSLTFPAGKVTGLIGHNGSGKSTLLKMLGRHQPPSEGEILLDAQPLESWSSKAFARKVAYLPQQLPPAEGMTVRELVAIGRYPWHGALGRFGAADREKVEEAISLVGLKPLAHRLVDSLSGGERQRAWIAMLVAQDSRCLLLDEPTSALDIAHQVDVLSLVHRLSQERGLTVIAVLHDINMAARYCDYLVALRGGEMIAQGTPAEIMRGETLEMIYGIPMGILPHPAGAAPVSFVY", "T2 sequence (looked up) 2": "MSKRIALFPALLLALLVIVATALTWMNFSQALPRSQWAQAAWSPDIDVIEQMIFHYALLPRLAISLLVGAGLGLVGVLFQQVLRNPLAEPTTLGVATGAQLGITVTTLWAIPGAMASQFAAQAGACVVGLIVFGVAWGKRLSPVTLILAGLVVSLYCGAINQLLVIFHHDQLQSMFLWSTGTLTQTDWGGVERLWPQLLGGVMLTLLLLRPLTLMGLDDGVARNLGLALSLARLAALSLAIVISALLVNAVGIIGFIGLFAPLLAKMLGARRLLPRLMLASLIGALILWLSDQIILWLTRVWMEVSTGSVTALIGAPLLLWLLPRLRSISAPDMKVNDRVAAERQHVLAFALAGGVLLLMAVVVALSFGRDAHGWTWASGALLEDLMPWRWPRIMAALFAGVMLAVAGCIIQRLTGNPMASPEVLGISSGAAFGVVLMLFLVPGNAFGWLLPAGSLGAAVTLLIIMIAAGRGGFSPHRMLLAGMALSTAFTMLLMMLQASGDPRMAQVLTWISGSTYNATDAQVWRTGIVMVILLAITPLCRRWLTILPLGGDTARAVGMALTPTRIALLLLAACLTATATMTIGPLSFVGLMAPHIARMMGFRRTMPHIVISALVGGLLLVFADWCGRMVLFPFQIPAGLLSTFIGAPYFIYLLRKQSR", "test": "MST; 40 nM FhuCB (wild type or FhuB mutant) in detergent, His-tag labelled with red-tris-NTA 2nd generation dye; serial dilution of 1.6 μM FhuD with substrate ferrichrome; with ATP-Mg; Monolith NT.115pico, 20% LED power, medium MST power", "settings": "both partners purified"}}}
{"binder": "FhuD (natural protein, Escherichia coli, In 'FhuD-ferrichrome' the protein was loaded with the small molecule ferrichrome; also called FhuD-ferrichrome (when loaded with ferrichrome)) AAIDPNRIVALEWLPVELLLALGIVPYGVADTINYRLWVSEPPLPDSVIDVGLRTEPNLELLTEMKPSFMVWSAGYGPSPEMLARIAPGRGFNFSDGKQPLAMARKSLTEMADLLNLQSAAETHLAQYEDFIRSMKPRFVKRGARPLLLTTLIDPRHMLVFGPNSLFQEILDEYGIPNAWQGETNFWGSTAVSIDRLAAYKDVDVLCFDHDNSKDMDALMATPLWQAMPFVRAGRFQRVPAVWFYGATLSAMHFVRVLDNAIGGKA", "values": [{"measurement": "Kd", "setting": "[1]", "value": 79.2, "unit": "nM"}, {"measurement": "Kd", "setting": "FhuCB with FhuB S57A", "value": 88.4, "unit": "nM"}]}
